In US20130243795A1 (Janssen / Centocor, published 2013):
Residue numbers refer to the chain shown, from its start. One block for each binder: values may come before it.

Legend:
[1] = target: T1, Human CD27 ECD truncated (ECD 1-121, cleavage site, His6) (human); assay: ProteOn SPR, culture supernatants
T1 construct: also called human CD27 ECD with His Tag; CD27-His
T1 chain: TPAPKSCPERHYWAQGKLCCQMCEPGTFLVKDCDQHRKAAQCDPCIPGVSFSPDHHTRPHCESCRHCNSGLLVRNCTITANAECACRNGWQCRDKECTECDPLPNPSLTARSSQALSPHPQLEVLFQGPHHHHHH

[2] = target: T2, Human CD27 ECD (ECD 1-173, His6) (human, UniProt P26842 21-193, biotinylated on amine residues (NHS-ester) where used biotinylated); assay: Fab ELISA; Fab captured by anti-Fd, biotinylated CD27 ECD at 0.2 nM
T2 construct: also called biotinylated human CD27 ECD

[3] = target: Human CD27, full length on the cell surface (human, UniProt P26842 21-260); assay: cell-based or functional assay
[4] = target: T1, Human CD27 ECD truncated (ECD 1-121, …); assay: ELISA signal for binding to CD27, initial small culture supernatants
[5] = target: T3, Human CD27 ECD, monomeric soluble (construct limits not stated) (human, UniProt P26842 20-191); assay: Biacore SPR, purified mAb, CD27 ECD
T3 construct: extracellular domain; target of the Biacore assays; also called monomeric soluble CD27; CD27-His

[6] = target: T2, Human CD27 ECD (ECD 1-173, His6); assay: single point Fab ELISA

T3 sequence (P26842 20-191): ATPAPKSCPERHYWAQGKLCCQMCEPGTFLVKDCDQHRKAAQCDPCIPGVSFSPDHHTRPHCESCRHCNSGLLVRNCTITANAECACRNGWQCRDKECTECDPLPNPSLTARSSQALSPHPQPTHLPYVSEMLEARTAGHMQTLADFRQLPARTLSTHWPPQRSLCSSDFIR
Chain of Human CD27, full length on the cell surface (P26842 21-260 H233R): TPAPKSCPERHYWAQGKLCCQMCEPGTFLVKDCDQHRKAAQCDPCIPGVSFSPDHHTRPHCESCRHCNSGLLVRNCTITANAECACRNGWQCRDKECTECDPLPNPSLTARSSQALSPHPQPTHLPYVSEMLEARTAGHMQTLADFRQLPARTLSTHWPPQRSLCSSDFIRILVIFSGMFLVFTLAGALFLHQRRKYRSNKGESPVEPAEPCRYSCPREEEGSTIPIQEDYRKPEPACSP

Kd [1]: 1.41 nM
B1: M153 (antibody, human IgG4, V domains shown)
VH: QVQLVQSGAEVKKPGASVKVSCKASGYAFSSSWMNWVRQAPGQGLEWMGRIYPGDGDTNYNGKFKGRVTMTRDTSTSTVYMELSSLRSEDTAVYYCARSDYYGDYGFAYWGQGTLVTVSS
VL: DIQMTQSPSSLSASVGDRVTITCKASQSVDYVGTSFMNWYQQKPGKAPKLLIYAASNLESGVPSRFSGSGSGTDFTLTISSLQPEDFATYYCQQSNEDPYTFGQGTKVEIK
notes: also called H25,L222

Kd [1]: 0.3 nM
B2: M163 (antibody, human IgG4, V domains shown)
VH: B1 VH with P53S
VL: B1 VL with V32W, G33S, T34D
notes: also called H196,L223

Kd [1]: 0.27 nM
B3: M164 (antibody, human IgG4, V domains shown)
VH: B1 VH with P53S
VL: B1 VL
notes: also called H196,L222

Kd [1]: 0.18 nM
B4: M165 (antibody, human IgG4, V domains shown)
VH: B1 VH with P53S
VL: B1 VL with V32F, G33R
notes: also called H196,L221

Kd [1]: 1.34 nM
B5: M161 (antibody, human IgG4, V domains shown)
VH: B1 VH with P53S
VL: B1 VL with V32F, T34D, F36L
notes: also called H196,L218

Kd [1]: 0.43 nM
B6: M162 (antibody, human IgG4, V domains shown)
VH: B1 VH with P53S
VL: B1 VL with T20A, V32Y, G33N, T34S
notes: also called H196,L224

Kd [1]: 1.56 nM
B7: M154 (antibody, human IgG4, V domains shown)
VH: B1 VH
VL: B1 VL with V32F, G33R
notes: also called H25,L221

percent binding of the parent [2]: ≥ 100%
B8: M69-derived Fab with VH H239 (Fab, V domains shown)
VH: EVQLVQSGAEVKKPGESLKISCKGSGYAFSSSWMNWVRQMPGKGLEWMGRIYAGDGDTNYSPSFQGQVTISADKSISTAYLQWSSLKASDTAMYYCARSDYYGDYGFAYWGQGTLVTVSS
VL: DIVMTQSPDSLAVSLGERATINCKASQSVDYAGDSYMNWYQQKPGQPPKLLIYAASNLESGVPDRFSGSGSGTDFTLTISSLQAEDVAVYYCQQSNEDPYTFGQGTKLEIK
notes: clone of library C27H28L2; pairing with parent L35 inferred

percent binding of the parent [2]: ≥ 100%
B9: M69-derived Fab with VH H237 (Fab, V domains shown)
VH: B8 VH with Y52F, A53V, G54R
VL: B8 VL
notes: as for B8

percent binding of the parent [2]: ≥ 100%
B10: M69-derived Fab with VH H245 (Fab, V domains shown)
VH: B8 VH with G8V, A53S, G54R
VL: B8 VL
notes: as for B8

percent binding of the parent [2]: ≥ 100%
B11: M69-derived Fab with VH H241 (Fab, V domains shown)
VH: B8 VH with A53G, G54R
VL: B8 VL
notes: as for B8

percent binding of the parent [2]: ≥ 100%
B12: M69-derived Fab with VH H240 (Fab, V domains shown)
VH: B8 VH with G54R
VL: B8 VL
notes: as for B8

percent binding of the parent [2]: ≥ 100%
B13: M69-derived Fab with VH H244 (Fab, V domains shown)
VH: B8 VH with A53S
VL: B8 VL
notes: as for B8

percent binding of the parent [2]: ≥ 100%
B14: M69-derived Fab with VH H236 (Fab, V domains shown)
VH: B8 VH with A53P, S99A, A108G
VL: B8 VL
notes: clone of library C27H28L3; pairing with the parent L35 light chain is inferred from the library design

percent binding of the parent [2]: ≥ 100%
B15: M69-derived Fab with VL L257 (Fab, V domains shown)
VH: B8 VH with A53P
VL: B8 VL with Y36W, A54T, Q83L
notes: clone of library C27L35L2; pairing with parent H28 inferred

percent binding of the parent [2]: ≥ 100%
B16: M69-derived Fab with VH H243 (Fab, V domains shown)
VH: B8 VH with A53G
VL: B8 VL
notes: as for B8

percent binding of the parent [2]: ≥ 100%
B17: M69-derived Fab with VL L256 (Fab, V domains shown)
VH: B8 VH with A53P
VL: B8 VL with Y36W, A54V
notes: as for B15

percent binding of the parent [2]: ≥ 100%
B18: M69-derived Fab with VL L255 (Fab, V domains shown)
VH: B8 VH with A53P
VL: B8 VL with Y36F
notes: clone recovered from the CDR-L1 libraries of L35; pairing with the parent H28 heavy chain inferred

percent binding of the parent [2]: ≥ 100%
B19: M69-derived Fab with VL L261 (Fab, V domains shown)
VH: B8 VH with A53P
VL: B8 VL with D34S, Y36F, A54E
notes: as for B15

percent binding of the parent [2]: ≥ 100%
B20: M69-derived Fab with VH H242 (Fab, V domains shown)
VH: B8 VH with G54N
VL: B8 VL
notes: as for B8

percent binding of the parent [2]: ≥ 100%
B21: M69-derived Fab with VL L260 (Fab, V domains shown)
VH: B8 VH with A53P
VL: B8 VL with Y31W, D34H, Y36W, A54T
notes: as for B15

percent binding of the parent [2]: ≥ 100%
B22: M69-derived Fab with VH H238 (Fab, V domains shown)
VH: B8 VH with A53V
VL: B8 VL
notes: as for B8

NFkB IC50 [3]: 0.041 nM
ELISA signal [4]: 0.96
Kd [5]: 0.0241 nM
B23: M489 (antibody, IgG1, V domains shown)
VH: QVQLVESGGGLVKPGGSLRLSCAASGFTFSSYGMSWIRQAPGKGLEWVSYIDEGGGQTIYPDSVKGRFTISRDNAKNSLYLQMNSLRAEDTAVYYCARHRGNPFDYWGQGTLVTVSS
VL: DIQMTQSPSSLSASVGDRVTITCRASKSVSLDRWSFMHWYQQKPGKAPKLLIYLASNLESGVPSRFSGSGSGTDFTFTISSLQPEDIATYYCQHSRELPWTFGQGTKVEIK
notes: also called H227/L250

NFkB IC50 [3]: 0.023 nM
ELISA signal [4]: 0.92
Kd [5]: 0.0394 nM
B24: M488 (antibody, IgG1, V domains shown)
VH: B23 VH
VL: B23 VL with L31E, D32G, L54V, N57R
notes: also called H227/L249

binding result [6]: binds
B25: F18 (Fab, V domains shown)
VH: EVQLLESGGGLVQPGGSLRLSCAASGFTFSSYTMSWVRQAPGKGLEWVSAIDHGGGRTYYPDSVKGRFTISRDNSKNTLYLQMNSLRAEDTAVYYCARHRGNPFDYWGQGTLVTVSS
VL: B23 VL with L31T, D32S, R33G, W34Y, F77L, I87F
notes: also called H40/L40

binding result [6]: binds
B26: F295 (Fab, V domains shown)
VH: B25 VH with A50Y, D52S, H53S, R57N
VL: DIQMTQSPSSLSASVGDRVTITCRASKSVSTSGYSFMHWYQQKPGKAPKLLIYVADRVEVGVPSRFSGSGSGTDFTLTISSLQPEDFATYYCQHSRELPWTFGQGTKVEIK
notes: also called H39/L176

binding result [6]: binds
B27: F19 (Fab, V domains shown)
VH: B25 VH with Y59W
VL: B26 VL with V54L, D56S, R57N, V58L, V60S
notes: also called H41/L40

NFkB IC50 [3]: 0.006 nM
ELISA signal [4]: 0.69
Kd [5]: 0.171 nM
B28: M526 (antibody, IgG1, V domains shown)
VH: B23 VH with E53R, Q57V
VL: B23 VL with L31E, D32G, L54V, N57R
notes: also called H222/L249

binding result [6]: binds
B29: F279 (Fab, V domains shown)
VH: B25 VH with A50Y, D52S, H53S, R57N
VL: B23 VL with L31Y, D32V, F77L, I87F
notes: also called H39/L160

binding result [6]: binds
B30: F291 (Fab, V domains shown)
VH: B25 VH with A50Y, D52S, H53S, R57N
VL: B23 VL with L31H, D32I, F77L, I87F
notes: also called H39/L172

binding result [6]: binds
B31: F297 (Fab, V domains shown)
VH: B25 VH with A50T, H53R, R57S, Y59W
VL: B26 VL with V54L, D56S, R57N, V58L, V60S
notes: also called H190/L40

binding result [6]: binds
B32: F298 (Fab, V domains shown)
VH: B25 VH with H53G, R57A
VL: B26 VL with V54L, D56S, R57N, V58L, V60S
notes: also called H191/L40

binding result [6]: binds
B33: F302 (Fab, V domains shown)
VH: B25 VH with A50Y, D52S, H53S, R57N
VL: B23 VL with D32I, F77L, I87F
notes: also called H39/L179

binding result [6]: binds
B34: F57 (Fab, V domains shown)
VH: B25 VH with R57Q, Y59L
VL: B26 VL with V54L, D56S, R57N, V58L, V60S
notes: also called H79/L40

binding result [6]: binds
B35: F256 (Fab, V domains shown)
VH: B25 VH with A50Y, D52S, H53S, R57N
VL: B26 VL with A55G, D56S, V58L, E59D, V60Y
notes: also called H39/L137

binding result [6]: binds
B36: F292 (Fab, V domains shown)
VH: B25 VH with A50Y, D52S, H53S, R57N
VL: B23 VL with L31H, D32V, F77L, I87F
notes: also called H39/L173

binding result [6]: binds
B37: F243 (Fab, V domains shown)
VH: B25 VH with A50Y, D52S, H53S, R57N
VL: B26 VL with A55G, D56S, V58M, E59A, V60F
notes: also called H39/L124

binding result [6]: binds
B38: F299 (Fab, V domains shown)
VH: B25 VH with A50V, R57S, Y59H
VL: B26 VL with V54L, D56S, R57N, V58L, V60S
notes: also called H192/L40
